Earlier results on 1 substance are cited in US20170240926A1, “METHODS FOR PRENYLATION OF PEPTIDES AND THEIR USE IN OVER-PRODUCTION OF FARNESENE AND GERANYLGERANYL TERPENES” (University of North Texas, priority 2016, published 2017).

The target in the data set is FTase (Rattus norvegicus, UniProt Q02293+Q04631). The conditions noted are these: 10 μM FPP, 0.4-10 μM dansylated peptide, 25-300 nM FTase, 50 mM HEPPSO pH 7.8, 25° C.

Turning to “CFLS: peptide of the form dansyl-TKCxxx with C-terminal CFLS; SCAMPER”, the kfarn was 0.46 ± 0.05 s⁻¹.
